The conditions of data set [1]: 0.5, 1, 2 and 4 hours after injection.
In a further data set the test system is Brain (other hemisphere). The conditions noted are these: 2 h, PBS background subtracted.
In another data set the test system is brain cells. Conditions: cortex. The method, then: For the particulate fluorescence analysis, images were converted to binary images, and then 5 ROIs 20*20 μm^2 were drawn per image. The area of each particle on the ROI was measured using the Image) particle analysis tool, where each particle was measured separately. Sizes were then summarized, sorted, and further analyzed using Minitab18 software (Minitab, Inc, State College, Pa., USA). Particulate areas observed between different conditions were compared via a one-way ANOVA combined with post-hoc Tukey tests to test differences between each experimental group.
A more reliable method to separate the particulate from the cellular fluorescence was reasoned to be by adjusting the levels of the image and converting it to a binary image, allowing the detection of only particulates eliminating interference of the diffused background. FIGS. 29A-29D illustrate intracellular fluorescence of mini nanodrugs.
Each ROI was converted to binary (black and white) image and the area and number of particles were quantified. 3 images per brain area were tested for 3 mice per group.
The particle content (example of ROI in FIG. 29A) then was measured. The average size of the particulate fluorescence is a proxy to estimate the intracellular load of fluorescent nanoconjugates following their injections. An example of such an analysis is shown in FIG. 29A: the yellow squares indicate regions of interest that were used to quantify particulate fluorescence. FIGS. 29B-29C summarize the average size of the intracellular fluorescence particles in the cortex ([…]), midbrain (FIG. 29C), and the hippocampus (FIG. 29C).

For another data set, the system named is brain parenchyma. The method, then:
To determine how nanoconjugate-associated fluorescence relates to the anatomy of the vasculature, the distance of each analyzed ROI was manually measured from the nearest blood vessel wall (using line tool in FIJI). For tumor bearing mice, 5 images per tumor tissue and 5 per brain tissue were analyzed for each mouse. Intensity values were then plotted against the location of the blood vessel wall and summarized in scatterplots (e.g., FIG. 14B).
Drug concentrations are listed with regard to total nanoconjugate content systemically injected. […] Referring to FIG. 14B, fluorescence measurements were obtained from 10 μm^2-sized regions of interest (ROI) that were randomly overlaid on regions devoid of vasculature shown as yellow squares on photograph 1 of FIG. 14A. Intensity measurements and positions were then obtained for each ROI and plotted against the location of the nearest blood vessel wall. FIG. 14C is set of charts: chart 1—Cortex; chart 2—Midbrain and chart 3 Hippocampus, illustrating average nanoconjugate fluorescence in the brain parenchyma measured following injections at four different drug concentrations. In this figure, fluorescence is shown as relative fluorescence, which is the measured nanoconjugate fluorescence after subtraction of autofluorescence imaged from PBS injected animals using similar acquisition settings.
FIG. 14B explores this relationship in a plot from all of the measurements (for each condition: 4 mice, 3-4 sections with 20 random measurements each). All fluorescence intensity measurements were conducted with 10 μm^2-sized regions of interest placed outside of tomato-lectin stained blood vessels (ROI as in Photograph 1 of FIG. 14A); the positions of these ROIs were then measured against the location of the nearest blood vessel wall to produce the scatterplot in FIG. 14B.
The resulting data were used as a metric to examine how well the mini nanodrug was able to travel from the vessels into the surrounding parenchyma and encounter brain cells. […] Nanoconjugate diffused fluorescence intensity vs. ‘distance from vasculature’ measurements in brain parenchyma of mice injected with nanoconjugates at a dose of 0.274 μmol/Kg. Fluorescence measurements were obtained from […] regions of interest (ROI) that were randomly overlaid on regions devoid of vasculature (shown by yellow squares in FIG. 22A). Intensity measurements and positions were then obtained for each ROI and plotted against the location of the nearest blood vessel wall.

A further data set deals with neurons and astroglia. Conditions: mouse, in vivo. The method, then:
Neuronal and glial counterstaining: In FIGS. 27A-27C, brain tissue from drug-injected mice was counterstained to determine if our nanoconjugates are taken up by neurons or glia. Cryosections ([…]) were air-dried for 10 min, fixed with 2% paraformaldehyde for 5 min, and then rinsed three times with PBS. […] The antibodies anti-Neun (Abcam, Cambridge, Mass., USA; AB104225) and anti-GFAP (Neuromics, Edina, Minn., USA; C1122102) were then diluted 1:500 in PBS-T and tissue sections incubated simultaneously with antibody solutions overnight at 4° C. in a humid chamber. Tissue sections were then washed five times with PBS-T and incubated in appropriate secondary antibody diluted 1:250 in PBS-T, for 2-4 h. After five washes in PBS at room temperature, sections were mounted between coverslips in Fluoromount-G with DAPI.
To this end, after systemic injection of our D-conjugates we counterstained brain tissue sections of hippocampus and cortex with anti-Neun to label neurons, and with anti-GFAP to label astroglia (FIGS. 27A-27C) and inspected the stained sections for red fluorescent particulates. […] Positive neurons and glia cells were counted after systemic injection of conjugates containing D1, D3, AC189 peptides, and of a control PBS (FIGS. 27A-27C).

Data set [2] concerns blood-brain barrier (BBB). Conditions: Israel et al., 2019; cited from earlier work.
Data set [3] relates to LRP-1 transcytosis pathway. The conditions noted are these: 70-fold molar excess of P/LLL (40%).

Where two headings read alike, the source gives them in different places.

As for PMLA/LLL/AP2/rhodamine [P/LLL/AP2], the “Visibility of nanoconjugate around blood vessels in ex vivo brain slices” value in data set [1] was “visible around blood vessels for two hours and almost disappeared at 4 hours”. Under “0.068 μmol/kg injection”, the “serum concentration at 120 minutes” value was 0.115 mol/mL and the “serum drug concentration at 120 minutes post injection” value stood at 0.115 µmol/mL. Further, the serum half-life (i.v. 0.068 μmol/kg, single exponential decay fit) is 76.7 min. Further, the “Brain (other hemisphere) fluorescence” value in the data set on Brain (other hemisphere) (dose 1X) came out at 2.1. Besides, the “Brain (other hemisphere) fluorescence” value in the data set with Brain (other hemisphere) (dose 4X) is reported as 9.4. The “average area per particle” value in the data set with brain cells stood at 0.42±0.72 μm^2. In the data set on brain parenchyma (0.274 μmol/kg, 120 min), the “fluorescence intensity decrease (slope), linear regression vs distance from vessel” value is −0.272±0.07 and the “γ-intercept of linear regression, fluorescence vs distance” value is given as 17.49±0.8. In addition, the “γ-intercept of linear regression, fluorescence vs distance” value in the data set with brain parenchyma (0.068 mol/kg, 120 min) is on record as 6.342±0.34. The “cortex Y intercepts of fluorescence vs distance curves (exponential fits)” value in the data set with brain parenchyma (cortex, 0.274 μmol/Kg) is on record as 14.7. For the same substance, the “cell association in GFAP and NEUN staining” value in the data set with neurons and astroglia was “no cell association”. Besides, in data set [2], the “half-life of first decline in brain parenchyma” value is more than 120 min and the “time independent plateau in parenchyma” value is on record as more than 240 min. In data set [3], the “competition by unlabeled P/LLL (40%)” value was “did not exhibit competition”.

The values are drawn from patent US20200206304A1, “METHODS AND COMPOSITIONS FOR EFFICIENT DELIVERY THROUGH MULTIPLE BIO BARRIERS” (Cedars-Sinai Medical Center, priority 2017, published 2020).
